Test results published in paper PMC6771595.

Columns and labels:
[1] = biological target: PptA, phosin (polyP-targeting protein) from Streptomyces chartreusis (Streptomyces chartreusis); assay: SAXS
[2] = biological target: PptA, phosin (polyP-targeting protein) from Streptomyces chartreusis (Streptomyces chartreusis); assay: SEC

PptA, phosin (polyP-targeting protein) from Streptomyces chartreusis (natural protein)
stoichiometry N [1]: 2 | stoichiometry N [2]: 2
